Values quoted from earlier work in publication PMC8900292.

Biological target: VAMP2 juxtamembrane LD (UniProt P63027)
Sequence of UniProt P63027 (P63027 whole entry, looked up): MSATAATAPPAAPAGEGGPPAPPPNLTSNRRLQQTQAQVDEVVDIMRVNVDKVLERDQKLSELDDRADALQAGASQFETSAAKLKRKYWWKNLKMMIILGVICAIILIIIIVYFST

- Kd: 10 µM
Substance: Munc13-1 MUN (from UniProt Q62768)
